# Measured values from patent US10538556.
# Tests used:
# [1] = system: stapled (cyclic) beta2-beta3 loop peptide L44C, F56C (synthetic); assay: flow; settings: 25 C, E. coli surface display, apparent Kd
# [2] = system: Tat peptide (basic domain) (Human immunodeficiency virus 1); settings: method of this Kd not stated
# [3] = system: TBP6.7 (U1A-derived TAR binding protein, crystallization variant) (Homo sapiens); assay: ITC
# [4] = molecular target: TBP6.7 P46A P46A (in TBP6.7 Y31H/Q36R) (Homo sapiens) (UniProt P09012); assay: ITC; settings: 20 C
# Sequence of TBP6.7 P46A P46A (in TBP6.7 Y31H/Q36R) (Homo sapiens) (P09012 whole entry, stated change not applied): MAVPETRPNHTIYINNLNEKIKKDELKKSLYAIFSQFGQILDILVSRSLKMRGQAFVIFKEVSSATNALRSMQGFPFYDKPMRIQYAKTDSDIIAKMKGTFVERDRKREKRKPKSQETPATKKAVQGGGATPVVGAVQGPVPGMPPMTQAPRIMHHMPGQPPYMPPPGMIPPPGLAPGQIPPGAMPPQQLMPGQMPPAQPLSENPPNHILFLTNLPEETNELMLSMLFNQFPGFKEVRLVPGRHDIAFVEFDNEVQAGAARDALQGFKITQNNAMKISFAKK
# [5] = molecular target: TBP6.7 P51A P51A (in TBP6.7 Y31H/Q36R) (Homo sapiens) (UniProt P09012); assay: ITC; settings: 20 C
# Sequence of TBP6.7 P51A P51A (in TBP6.7 Y31H/Q36R) (Homo sapiens) (P09012 whole entry, stated change not applied): as above
# [6] = molecular target: TBP6.7 Q48A Q48A (in TBP6.7 Y31H/Q36R) (Homo sapiens) (UniProt P09012); assay: ITC; settings: 20 C
# Sequence of TBP6.7 Q48A Q48A (in TBP6.7 Y31H/Q36R) (Homo sapiens) (P09012 other isoform, or with tags, fused parts or gaps Q48A Q48A Y31H Q36R): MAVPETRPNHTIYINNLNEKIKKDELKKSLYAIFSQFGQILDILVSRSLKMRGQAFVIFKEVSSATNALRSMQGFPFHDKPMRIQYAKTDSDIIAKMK
# [7] = molecular target: TBP6.7 Q48T Q48T (in TBP6.7 Y31H/Q36R) (Homo sapiens) (UniProt P09012); assay: ITC; settings: 20 C
# Sequence of TBP6.7 Q48T Q48T (in TBP6.7 Y31H/Q36R) (Homo sapiens) (P09012 whole entry, stated change not applied): as the sequence (P09012 whole entry, stated change not applied) above
# [8] = molecular target: TBP6.7 Q54A Q54A (in TBP6.7 Y31H/Q36R) (Homo sapiens) (UniProt P09012); assay: ITC; settings: 20 C
# Sequence of TBP6.7 Q54A Q54A (in TBP6.7 Y31H/Q36R) (Homo sapiens) (P09012 1-98 Y31H/Q36R/Q54A): as the sequence (P09012 other isoform, or with tags, fused parts or gaps Q48A Q48A Y31H Q36R) above, with Y31H, Q36R, Q54A, H78Y counted along it
# [9] = molecular target: TBP6.7 R47A R47A (in TBP6.7 Y31H/Q36R) (Homo sapiens) (UniProt P09012); assay: ITC; settings: 20 C; estimate, low c-value
# Sequence of TBP6.7 R47A R47A (in TBP6.7 Y31H/Q36R) (Homo sapiens) (P09012 1-98 Y31H/Q36R/R47A): as the sequence (P09012 other isoform, or with tags, fused parts or gaps Q48A Q48A Y31H Q36R) above, with Y31H, Q36R, R47A, H78Y counted along it
# [10] = molecular target: TBP6.7 R47K R47K (in TBP6.7 Y31H/Q36R) (Homo sapiens) (UniProt P09012); assay: ITC; settings: 20 C
# Sequence of TBP6.7 R47K R47K (in TBP6.7 Y31H/Q36R) (Homo sapiens) (P09012 1-98 Y31H/Q36R/R47K): as the sequence (P09012 other isoform, or with tags, fused parts or gaps Q48A Q48A Y31H Q36R) above, with Y31H, Q36R, R47K, H78Y counted along it
# [11] = molecular target: TBP6.7 R49A R49A (in TBP6.7 Y31H/Q36R) (Homo sapiens) (UniProt P09012); assay: ITC; settings: 20 C
# Sequence of TBP6.7 R49A R49A (in TBP6.7 Y31H/Q36R) (Homo sapiens) (P09012 whole entry, stated change not applied): as the sequence (P09012 whole entry, stated change not applied) above
# [12] = molecular target: TBP6.7 R52A R52A (in TBP6.7 Y31H/Q36R) (Homo sapiens) (UniProt P09012); assay: ITC; settings: 20 C
# Sequence of TBP6.7 R52A R52A (in TBP6.7 Y31H/Q36R) (Homo sapiens) (P09012 1-98 Y31H/Q36R/R52A): as the sequence (P09012 other isoform, or with tags, fused parts or gaps Q48A Q48A Y31H Q36R) above, with Y31H, Q36R, R52A, H78Y counted along it
# [13] = molecular target: TBP6.7 T50A T50A (in TBP6.7 Y31H/Q36R) (Homo sapiens) (UniProt P09012); assay: ITC; settings: 20 C; error printed as XX
# Sequence of TBP6.7 T50A T50A (in TBP6.7 Y31H/Q36R) (Homo sapiens) (P09012 whole entry, stated change not applied, the tested form may be a part): as the sequence (P09012 whole entry, stated change not applied) above
# [14] = system: TBP6.7 deltaC truncated after residue 90 (in TBP6.7 Y31H/Q36R) (Homo sapiens); assay: ITC; settings: 20 C
substance,measurement,setting,value
HIV-1 TAR RNA,Kd,[1],80 nM
same,Kd,[2],260 nM
same,Kd,"[3]; 20 C, n=0.99",2.5 nM
same,Kd,"[3]; 37 C, 0.05 M NaCl, 0.05 M KCl, 2 mM MgCl2, 2 mM beta-mercaptoethanol, pH 7.5, estimate of about 0.7 nM at 20 C in same example",18.5 nM
same,Kd,[4],11.7 nM
same,Kd,[5],10.8 nM
same,Kd,[6],5.5 nM
same,Kd,[7],3.6 nM
same,Kd,[8],7.2 nM
same,Kd,[9],1520 nM
same,Kd,[10],156 nM
same,Kd,[11],710 nM
same,Kd,[12],290 nM
same,Kd,[13],11.4 nM
same,Kd,[14],12 nM
